Reference: the supplement of paper PMC7877785
± gives the uncertainty stated by the source.

Test: self-splicing fitness, log relative to wild type (ln ratio); higher = more splicing; Tetrahymena group I intron in knt gene, E. coli kanamycin selection, DiMSum; sequences stand for … in CUCUCU…GGAGGGAAAAGUUAUCAGGCAUGCACCUGGUAGCUAGUCUUUAAACCAAUAGAUUGCAUCGGUUUAAAAGGCAAGACCGUCAAAUUGCGGGAAAGGGGUCAACAGCCGUUCAGUACCAAGUCUCAGGGGAAACUUUGAGAUGGCCUUGCAAAGGGUAUGGUAAUAAGCUGACGGACAUGGUCCUAACCACGCAGCCAAGUCCUAAGUCAACAGAUCUUCUGUUGAUAUGGAUGCAGUUCACAGACUAAAUGUCGGUCGGGGAAGAUGUAUUCUUCUCAUAAGAUAUAGUCGGACCUCUCCUUAAUGGGAGCUAGCGGAUGAAGUGAUGCAACACUGGAGCCGCUGGGAACUAAUUUGUAUGCGAAAGUAUAUUGAUUAGUUUUGGAGUACUCGUGGUCG
Procedure, shortened: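 DiMSum derived fitness as the error-weighted combination of fold changes across replicates, kanamycin versus no kanamycin, normalised to wild type. E. coli BL21(DE3) held the library, which randomised all eight P1ex-region intron nucleotides within the knt kanamycin-resistance gene on pET-22b(+). Six replicate transformations grew overnight at 37°C or 30°C on LB agar with or without 25 μg/mL kanamycin, also containing 100 μg/mL carbenicillin, 50 μM IPTG and 0.2% rhamnose, and pooled colonies were amplicon-sequenced on an Illumina HiSeq 2500.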

Row | Sequence | self-splicing fitness (ln) (30 °C) | self-splicing fitness (ln) (37 °C)
1 | AUAGAGCAAUAUUACGCCAU | -2.25 ± 0.18 | -1.66 ± 0.27
2 | AUAGAGCAAUAUUACGCCCU | -0.756 ± 0.19 | -0.622 ± 0.37
3 | AUAGAGCAAUAUUACGCCGA | -1.81 ± 0.19 | -0.0699 ± 0.32
4 | AUAGAGCAAUAUUACGCCGC | – | -2.75 ± 0.44
5 | AUAGAGCAAUAUUACGCUCA | -0.0598 ± 0.076 | 0.193 ± 0.12
6 | AUAGAGCAAUAUUACGGAGU | -0.705 ± 0.093 | -1.03 ± 0.14
7 | AUAGAGCAAUAUUACGGCCA | -1.25 ± 0.15 | -1.02 ± 0.24
8 | AUAGAGCAAUAUUACGUACU | -0.65 ± 0.12 | 0.124 ± 0.14
9 | AUAGAGCAAUAUUACGUCCG | -2.71 ± 0.23 | -3.65 ± 0.34
10 | AUAGAGCAAUAUUACGUCCU | -1.42 ± 0.093 | -0.577 ± 0.14
11 | AUAGAGCAAUAUUACGUGCG | -1.6 ± 0.11 | -0.384 ± 0.11
12 | AUAGAGCAAUAUUACGUUCG | -0.386 ± 0.077 | -0.257 ± 0.092
13 | AUAUAGCAAUAUUACGACAU | 0.126 ± 0.014 | 0.224 ± 0.033
14 | AUAUAGCAAUAUUACGACGA | -1.1 ± 0.22 | -0.564 ± 0.28
15 | AUAUAGCAAUAUUACGAGAG | – | -2.29 ± 0.22
16 | AUAUAGCAAUAUUACGAGAU | -3.01 ± 0.14 | -0.91 ± 0.13
17 | AUAUAGCAAUAUUACGAGCG | -2.19 ± 0.17 | -0.66 ± 0.16
18 | AUAUAGCAAUAUUACGAGGC | -2.74 ± 0.26 | –
19 | AUAUAGCAAUAUUACGAGUC | -2.97 ± 0.34 | -2.63 ± 0.45
20 | AUAUAGCAAUAUUACGCAGU | -2.86 ± 0.25 | -3.1 ± 0.33
21 | AUAUAGCAAUAUUACGCAUG | -1.66 ± 0.12 | -0.477 ± 0.14
22 | AUAUAGCAAUAUUACGCCCA | -1.31 ± 0.3 | -0.688 ± 0.3
23 | AUAUAGCAAUAUUACGCCCG | -1.67 ± 0.21 | -1.56 ± 0.42
24 | AUAUAGCAAUAUUACGCGCC | -1.51 ± 0.33 | -1.35 ± 0.41
25 | AUAUAGCAAUAUUACGCUAG | -1.69 ± 0.25 | -1.19 ± 0.3

Row | Sequence | self-splicing fitness (ln) (30 °C) | self-splicing fitness (ln) (37 °C)
26 | AUAUAGCAAUAUUACGCUCC | -0.958 ± 0.25 | -0.476 ± 0.32
27 | AUAUAGCAAUAUUACGCUUC | -2.84 ± 0.38 | -2.86 ± 0.43
28 | AUAUAGCAAUAUUACGGAAG | -3.08 ± 0.36 | -1.27 ± 0.34
29 | AUAUAGCAAUAUUACGGCGC | -1.38 ± 0.19 | -0.869 ± 0.26
30 | AUAUAGCAAUAUUACGUGGC | – | -2.67 ± 0.31
31 | AUAUAGCAAUAUUACGUUAU | -3.02 ± 0.13 | -1.65 ± 0.12
32 | AUCAAGCAAUAUUACGAAAU | -2.09 ± 0.078 | -1.04 ± 0.092
33 | AUCAAGCAAUAUUACGAACA | -1.12 ± 0.08 | -0.578 ± 0.08
34 | AUCAAGCAAUAUUACGAAUC | -4.76 ± 0.41 | -2.78 ± 0.3
35 | AUCAAGCAAUAUUACGACCG | -1.33 ± 0.15 | -0.381 ± 0.18
36 | AUCAAGCAAUAUUACGACCU | -0.924 ± 0.11 | -0.336 ± 0.1
37 | AUCAAGCAAUAUUACGAUAC | -4.68 ± 0.39 | -2.17 ± 0.26
38 | AUCAAGCAAUAUUACGAUCC | -2.34 ± 0.2 | -0.539 ± 0.21
39 | AUCAAGCAAUAUUACGCAGG | -2.34 ± 0.2 | -1.8 ± 0.2
40 | AUCAAGCAAUAUUACGCCAG | -3.08 ± 0.2 | -1.32 ± 0.23
41 | AUCAAGCAAUAUUACGCCCC | -1.45 ± 0.3 | 0.787 ± 0.27
42 | AUCAAGCAAUAUUACGCGCC | -1.23 ± 0.14 | -0.474 ± 0.17
43 | AUCAAGCAAUAUUACGGAGC | -2.98 ± 0.28 | -1.92 ± 0.25
44 | AUCAAGCAAUAUUACGGCGC | -1.01 ± 0.093 | 0.428 ± 0.14
45 | AUCAAGCAAUAUUACGGGCC | -2.78 ± 0.2 | -0.86 ± 0.29
46 | AUCAAGCAAUAUUACGGUAA | -2.12 ± 0.12 | -0.319 ± 0.084
47 | AUCAAGCAAUAUUACGGUAG | – | -2.53 ± 0.39
48 | AUCAAGCAAUAUUACGGUCA | -1.76 ± 0.14 | -1.28 ± 0.13
49 | AUCAAGCAAUAUUACGUAUG | -4.19 ± 0.24 | -1.56 ± 0.14
50 | AUCAAGCAAUAUUACGUCUC | -2.08 ± 0.087 | -1.16 ± 0.11

Row | Sequence | self-splicing fitness (ln) (30 °C) | self-splicing fitness (ln) (37 °C)
51 | AUCAAGCAAUAUUACGUGCA | -0.986 ± 0.077 | -0.556 ± 0.088
52 | AUCAAGCAAUAUUACGUGCG | -1.03 ± 0.079 | 0.202 ± 0.099
53 | AUCAAGCAAUAUUACGUUAG | -3.1 ± 0.14 | -3.05 ± 0.2
54 | AUCCAGCAAUAUUACGAACA | -0.801 ± 0.087 | -0.748 ± 0.11
55 | AUCCAGCAAUAUUACGAACU | -1.98 ± 0.15 | -0.753 ± 0.18
56 | AUCCAGCAAUAUUACGACAU | 0.00336 ± 0.011 | 0.408 ± 0.032
57 | AUCCAGCAAUAUUACGAGAC | -2.51 ± 0.091 | -2.01 ± 0.11
58 | AUCCAGCAAUAUUACGAUCG | -2.6 ± 0.2 | -3.02 ± 0.37
59 | AUCCAGCAAUAUUACGCACU | -0.149 ± 0.11 | 0.144 ± 0.11
60 | AUCCAGCAAUAUUACGCAGA | -1.38 ± 0.11 | -0.448 ± 0.099
61 | AUCCAGCAAUAUUACGCCAC | -2.03 ± 0.18 | -2.5 ± 0.2
62 | AUCCAGCAAUAUUACGCCGA | -1.37 ± 0.1 | -0.75 ± 0.14
63 | AUCCAGCAAUAUUACGCGCU | -3.57 ± 0.22 | -2.37 ± 0.22
64 | AUCCAGCAAUAUUACGCGUU | -1.06 ± 0.087 | -0.503 ± 0.1
65 | AUCCAGCAAUAUUACGGCAC | -0.153 ± 0.085 | -0.31 ± 0.099
66 | AUCCAGCAAUAUUACGGGAU | -3.75 ± 0.28 | -2.9 ± 0.36
67 | AUCCAGCAAUAUUACGGGUG | -1.18 ± 0.049 | -0.904 ± 0.061
68 | AUCCAGCAAUAUUACGUAUG | -3.79 ± 0.2 | -2.05 ± 0.16
69 | AUCCAGCAAUAUUACGUCAA | -1.99 ± 0.1 | -1.54 ± 0.098
70 | AUCCAGCAAUAUUACGUCCA | -1.22 ± 0.11 | -0.412 ± 0.12
71 | AUCCAGCAAUAUUACGUGAA | -0.631 ± 0.049 | -0.212 ± 0.072
72 | AUCCAGCAAUAUUACGUUAA | -1.79 ± 0.11 | -1.1 ± 0.12
73 | AUCCAGCAAUAUUACGUUCU | -1.64 ± 0.096 | -1.39 ± 0.13
74 | AUCCAGCAAUAUUACGUUGU | -3.92 ± 0.12 | -2.09 ± 0.093
75 | AUCGAGCAAUAUUACGACGC | -1.28 ± 0.094 | -0.674 ± 0.12

Row | Sequence | self-splicing fitness (ln) (30 °C) | self-splicing fitness (ln) (37 °C)
76 | AUCGAGCAAUAUUACGAGCU | -2.36 ± 0.4 | –
77 | AUCGAGCAAUAUUACGAUCA | – | -0.193 ± 0.26
78 | AUCGAGCAAUAUUACGCCUA | – | -2.39 ± 0.32
79 | AUCGAGCAAUAUUACGCCUU | -1.74 ± 0.16 | -1.72 ± 0.21
80 | AUCGAGCAAUAUUACGCGAA | -1.68 ± 0.2 | -0.699 ± 0.2
81 | AUCGAGCAAUAUUACGCGAC | -1.15 ± 0.22 | -2.55 ± 0.4
82 | AUCGAGCAAUAUUACGCGAG | -2.32 ± 0.2 | -1.4 ± 0.14
83 | AUCGAGCAAUAUUACGCGAU | -2.06 ± 0.27 | –
84 | AUCGAGCAAUAUUACGCGCU | -2.97 ± 0.26 | -2.87 ± 0.36
85 | AUCGAGCAAUAUUACGCGGG | -2.23 ± 0.24 | -1.21 ± 0.29
86 | AUCGAGCAAUAUUACGCGUC | -2.85 ± 0.21 | -2.7 ± 0.43
87 | AUCGAGCAAUAUUACGCGUG | -2.55 ± 0.13 | -1.2 ± 0.14
88 | AUCGAGCAAUAUUACGCUUC | – | -3.02 ± 0.44
89 | AUCGAGCAAUAUUACGCUUG | -2.41 ± 0.18 | -1.1 ± 0.3
90 | AUCGAGCAAUAUUACGGAGG | -1.89 ± 0.39 | -0.942 ± 0.25
91 | AUCGAGCAAUAUUACGGAUC | -3.66 ± 0.41 | -1.38 ± 0.32
92 | AUCGAGCAAUAUUACGGAUU | -3.48 ± 0.22 | -1.26 ± 0.17
93 | AUCGAGCAAUAUUACGGUGA | -2.39 ± 0.12 | -2.25 ± 0.15
94 | AUCGAGCAAUAUUACGUAAA | -3.43 ± 0.3 | -1.53 ± 0.29
95 | AUCGAGCAAUAUUACGUACG | – | -2.07 ± 0.27
96 | AUCGAGCAAUAUUACGUACU | -1.09 ± 0.15 | -0.28 ± 0.17
97 | AUCGAGCAAUAUUACGUGAC | -3.54 ± 0.26 | -2.91 ± 0.29
98 | AUCGAGCAAUAUUACGUUGC | -2.95 ± 0.29 | -1.7 ± 0.27
